Where “and” joins values, the source holds several entries; their conditions need not be identical. Identical values can stand only once.

Assay [1] concerns the target T1, GV27 peptide (ER-α36 c-terminal 27 aa) (human).
T1 construct: also called 27 aa peptide (F domain); 27-amino acid peptide derived from the F domain of ER-α36
T1 peptide: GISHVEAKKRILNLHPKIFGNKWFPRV
Description: Biacore; table head says human ER-α36, analyte taken as the GV27 peptide of Example 5.

In assay [2] the target is T2, biotinylated GV27 peptide (human, biotinylated (site not stated)).
T2 construct: also called antigen (biotinylated GV27 peptide)
T2 peptide: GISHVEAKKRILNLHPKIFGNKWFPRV
Nature of the assay: competition ELISA: plate coated with SNGhB1 (1 µg/ml), biotinylated GV27 added together with the soluble antibody, streptavidin-HRP; the sheet labels the soluble antibody SNGhB1, the legend paragraph 64 and paragraph 314 to paragraph 316 name SNGmB1. On the procedure:
(§1) The antigen (biotinylated GV27 peptide) was added along with different amount of the competing mouse antibody, the ELISA plates were then allowed to incubate for equilibrium before wash. Streptavidin-HRP (Sigma, S2438, 1:5000) and TMB substrate (Biopanda, China) were added and OD450 was measured on a plate reader. IgG were tested in parallel as control antibody.
(In general: In an ELISA, binding on a coated surface is turned into a signal by an enzyme label.)

Assay [3] concerns the target T1, GV27 peptide (ER-α36 c-terminal 27 aa). Nature of the assay: ELISA on the coated 27-aa peptide, antibody in 5-fold dilutions from 10 ug/ml.
Assay [4] has the same target. The assay is described as above.
Assay [5] shares this target. Nature of the assay: Biacore, antibody captured on anti-mouse Fc, GV27 injected. Background: SPR reads the build-up and loss of mass on a sensor chip optically.
For assay [6], the target named is T3, Fc-ER66 (fusion protein of Fc and ER-α66 ligand binding domain) (human, UniProt P03372 302-595, limits assumed).
T3 construct: also called Fc-ER-α66 protein; not shown: Fc
T3 sequence (looked up): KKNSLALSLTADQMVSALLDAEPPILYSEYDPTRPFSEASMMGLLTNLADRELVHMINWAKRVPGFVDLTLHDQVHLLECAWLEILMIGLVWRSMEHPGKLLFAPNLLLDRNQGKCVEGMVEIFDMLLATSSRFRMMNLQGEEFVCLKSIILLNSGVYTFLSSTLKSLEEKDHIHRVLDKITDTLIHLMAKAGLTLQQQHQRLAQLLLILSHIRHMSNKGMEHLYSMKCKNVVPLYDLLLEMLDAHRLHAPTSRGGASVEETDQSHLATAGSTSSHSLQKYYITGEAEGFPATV
Nature of the assay: ELISA, plate coated with Fc-ER66 at 1 ug/ml, HRP anti-mouse IgG Fc. As to the method:
(§2) Five different proteins were used to coat the assay plate at 1 μg/ml.

In assay [7] the target is T4, Fc-LBD-D27 (Fc-LBD with the C-terminal 27 amino acids deleted) (human, UniProt P03372 339-456).
T4 construct: also called Fc-LBD with 27 amino acids deleted; not shown: Fc
T4 chain: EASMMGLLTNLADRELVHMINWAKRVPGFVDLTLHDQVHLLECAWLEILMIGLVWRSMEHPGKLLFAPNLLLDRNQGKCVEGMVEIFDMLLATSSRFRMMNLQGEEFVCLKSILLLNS
Nature of the assay: ELISA, plate coated with Fc-LBD-D27 at 1 ug/ml, HRP anti-mouse IgG Fc. As to the method: as §2

Assay [8] addresses T5, Fc-LBD (fusion protein of Fc and ER-α36 ligand binding domain including the C-terminal 27 amino acids) (human).
T5 construct: Expressed in E. coli BL21 (DE3); No linker is described; also called Fc-ER-α36 LBD; not shown: Fc fused to the N terminal of the LBD
T5 chain: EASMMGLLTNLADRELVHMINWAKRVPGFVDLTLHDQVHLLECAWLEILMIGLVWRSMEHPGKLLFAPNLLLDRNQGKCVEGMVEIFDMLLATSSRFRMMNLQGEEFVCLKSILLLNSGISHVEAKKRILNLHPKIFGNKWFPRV
Nature of the assay: ELISA, plate coated with Fc-LBD at 1 ug/ml, SNGmB1 in 5-fold dilutions from 10 ug/ml, HRP anti-mouse IgG Fc. On the procedure: as §2

In assay [9] the target is T1, GV27 peptide (ER-α36 c-terminal 27 aa). Nature of the assay: ELISA, plate coated with the 27-aa peptide at 1 ug/ml, SNGmB1 in 5-fold dilutions from 10 ug/ml, HRP anti-mouse IgG Fc. As to the method: as §2
For assay [10], the target named is T2, biotinylated GV27 peptide. Description: competition ELISA: plate coated with hybridoma SNGmB1 (1 µg/ml), biotinylated GV27 added together with soluble SNGmB1, streptavidin-HRP. As to the method:
as §1

Assay [11] addresses T2, biotinylated GV27 peptide. Description: competition ELISA: plate coated with humanized SNGmB1 ('hzdSNGmB1', 1 µg/ml), biotinylated GV27 added together with soluble SNGmB1, streptavidin-HRP. On the procedure: as §1

B1: SNGhB1 chimeric antibody (antibody, human IgG1, kappa)
light: ETTVTQSPASLSMTIGEKVTIRCITSTDIDDDMNWYRKKPGQPPKLLISEGNTLRPGVPSRFSSSGYGTDFVFTIENMLSEDVADYYCLQSDNLPLTFGAGTKLELKRTVAAPSVFIFPPSDEQLKSGTASVVCLLNNFYPREAKVQWKVDNALQSGNSQESVTEQDSKDSTYSLSSTLTLSKADYEKHKVYACEVTHQGLSSPVTKSFNRGEC
heavy: not shown
notes: Chimeric antibody: mouse V regions with human kappa and IgG1 constant regions; also called chimeric SNGmB1; SNGhB1(20111118)
With B1, in assay [1], binding was put at a Kd of 0.163 nM, the koff stood at 0.000283 s⁻¹ and the kon is 1.74e+06 M⁻¹ s⁻¹. For the same molecule, in assay [2], the “IC50 (read off the curve)” value is approximately 0.5 µg/mL.

B2: SNGHZD (C1L + C5H) (antibody, human IgG1, kappa, V domains shown)
VH: QVQLVQSGAEVKKPGASVKVSCKASGYTFTSHNMHWVRQAPGQGLEWIGAIHPVNGDTAYNQKFKGKATLTVDKSTSTAYLELSSLRSEDTAVYYCAREGYGSVDYWGQGTLVTVSS
VL: ETTVTQSPAFMSATPGDKVNISCITSTDIDDDMNWYQQKPGEAPILIISEGNTLRPGIPPRFSSSGYGTDFTLTINNIESEDAAYYFCLQSDNLPLTFGQGTKLEIKR
notes: Humanized antibody, human IgG1/kappa, expressed in 293E6 cells; also called humanized SNGmB1 variant C1L + C5H
In the case of B2, in [1], the Kd stood at 0.164 nM, the koff stood at 0.000122 s⁻¹ and the kon was 744000 M⁻¹ s⁻¹.

B3: SNGHZD (C2L + C5H) (antibody, human IgG1, kappa, V domains shown)
VH: QVQLVQSGAEVKKPGASVKVSCKASGYTFTSHNMHWVRQAPGQGLEWIGAIHPVNGDTAYNQKFKGKATLTVDKSTSTAYLELSSLRSEDTAVYYCAREGYGSVDYWGQGTLVTVSS
VL: ETTVTQSPAFMSATPGDKVNISCITSTDIDDDMNWYQQKPGEAAILIISEGNTLRPGIPPRFSSSGYGTDFTLTINNIESEDAAYYFCLQSDNLPLTFGQGTKLEIKR
notes: Humanized antibody, human IgG1/kappa; also called humanized SNGmB1 variant C2L + C5H
In [1], B3 gave a Kd of 0.13 nM, a koff of 0.000488 s⁻¹ and a kon of 3.46e+06 M⁻¹ s⁻¹. Moreover, the “EC50 (read off the curve)” value in [3] was approximately 0.04 µg/mL.

B4: SNGHZD (C2L + C6H) (antibody, human IgG1, kappa, V domains shown)
VH: QVQLVQSGAEVKKPGASVKVSCKASGYTFTSHNMHWVRQAPGQGLEWIGAIHPVNGDTAYNQKFKGKATLTVDKSTSTAYMELSSLRSEDTAVYYCAREGYGSVDYWGQGTLVTVSS
VL: ETTVTQSPAFMSATPGDKVNISCITSTDIDDDMNWYQQKPGEAAILIISEGNTLRPGIPPRFSSSGYGTDFTLTINNIESEDAAYYFCLQSDNLPLTFGQGTKLEIKR
notes: Humanized antibody, human IgG1/kappa; also called humanized SNGmB1 variant C2L + C6H
In the case of B4, in assay [1], the Kd stood at 0.31 nM, the koff is 0.000398 s⁻¹ and the kon was found to be 1.28e+06 M⁻¹ s⁻¹.

B5: SNGHZD (C1L + C6H) (antibody, human IgG1, kappa, V domains shown)
VH: QVQLVQSGAEVKKPGASVKVSCKASGYTFTSHNMHWVRQAPGQGLEWIGAIHPVNGDTAYNQKFKGKATLTVDKSTSTAYMELSSLRSEDTAVYYCAREGYGSVDYWGQGTLVTVSS
VL: ETTVTQSPAFMSATPGDKVNISCITSTDIDDDMNWYQQKPGEAPILIISEGNTLRPGIPPRFSSSGYGTDFTLTINNIESEDAAYYFCLQSDNLPLTFGQGTKLEIKR
notes: Humanized antibody, human IgG1/kappa; also called humanized SNGmB1 variant C1L + C6H
In [1], B5 had a Kd of 0.105 nM, a koff of 0.000302 s⁻¹ and a kon of 2.89e+06 M⁻¹ s⁻¹. In addition, the “EC50 (read off the curve)” value in assay [4] was approximately 0.05 µg/mL.

B6: SNGHZD (C3L + C5H) (antibody, human IgG1, kappa, V domains shown)
VH: QVQLVQSGAEVKKPGASVKVSCKASGYTFTSHNMHWVRQAPGQGLEWIGAIHPVNGDTAYNQKFKGKATLTVDKSTSTAYLELSSLRSEDTAVYYCAREGYGSVDYWGQGTLVTVSS
VL: ETTVTQSPAFMSATPGDKVNISCITSTDIDDDMNWYQQKPGEAPILIISEGNTLRPGIPPRFSGSGYGTDFTLTINNIESEDAAYYFCLQSDNLPLTFGQGTKLEIKR
notes: Humanized antibody, human IgG1/kappa; also called humanized SNGmB1 variant C3L + C5H
As to B6, in assay [1], the Kd turned out to be 0.1 nM, the koff came out at 0.000356 s⁻¹ and the kon stood at 3.54e+06 M⁻¹ s⁻¹.

B7: SNGHZD (C3L + C6H) (antibody, human IgG1, kappa, V domains shown)
VH: QVQLVQSGAEVKKPGASVKVSCKASGYTFTSHNMHWVRQAPGQGLEWIGAIHPVNGDTAYNQKFKGKATLTVDKSTSTAYMELSSLRSEDTAVYYCAREGYGSVDYWGQGTLVTVSS
VL: ETTVTQSPAFMSATPGDKVNISCITSTDIDDDMNWYQQKPGEAPILIISEGNTLRPGIPPRFSGSGYGTDFTLTINNIESEDAAYYFCLQSDNLPLTFGQGTKLEIKR
notes: Humanized antibody, human IgG1/kappa; also called humanized SNGmB1 variant C3L + C6H
B7: in assay [1], binding was put at a Kd of 0.271 nM, the koff is 0.00036 s⁻¹ and the kon is 1.33e+06 M⁻¹ s⁻¹.

B8: SNGmB1 antibody (antibody, mouse IgG2b, kappa)
light: ETTVTQSPASLSMTIGEKVTIRCITSTDIDDDMNWYRKKPGQPPKLLISEGNTLRPGVPSRFSSSGYGTDFVFTIENMLSEDVADYYCLQSDNLPLTFGAGTKLELKRADAAPTVSIFPPSSEQLTSGGASVVCFLNNFYPKDINVKWKIDGSERQNGVLNSWTDQDSKDSTYSMSSTLTLTKDEYERHNSYTCEATHKTSTSPIVKSFNRNEC
heavy: QAYLQQSGAELVRPGASVKMSCKASGYTFTSHNMHWIKQTPRQGLEWIGAIHPVNGDTAYNQKFKGKATLTVDKSSSTAYLQLSSLTSEESAVYFCAREGYGSVDYWGQGTTLTVSSAKTTPPSVYPLAPGCGDTTGSSVTLGCLVKGYFPESVTVTWNSGSLSSSVHTFPALLQSGLYTMSSSVTVPSSTWPSQTVTCSVAHPASSTTVDKKLEPSGPISTINPCPPCKECHKCPAPNLEGGPSVFIFPPNIKDVLMISLTPKVTCVVVDVSEDDPDVQISWFVNNVEVHTAQTQTHREDYNSTIRVVSTLPIQHQDWMSGKEFKCKVNNKDLPSPIERTISKIKGLVRAPQVYILPPPAEQLSRKDVSLTCLVVGFNPGDISVEWTSNGHTEENYKDTAPVLDSDGSYFIYSKLNMKTSKWEKTDSFSCNVRHEGLKNYYLKKTISRSPGK
notes: Mouse monoclonal antibody from a hybridoma, mIgG2b; Several lots were tested; also called HBD-B1; hybridoma derived SNGmB1
With B8, in [5], the Kd is approximately 0.1 nM. Further, the binding result in [6] and in [7] was “no binding (tested: 10 ug/ml)” in each case. The koff in assay [1] was 0.000129 s⁻¹ and 0.000319 s⁻¹. In addition, the kon in assay [1] was 2.12e+06 M⁻¹ s⁻¹ and 1.76e+06 M⁻¹ s⁻¹. In addition, the “EC50 (read off the curve)” value in [8] was approximately 0.05 µg/mL; in assay [9], approximately 0.6 µg/mL. Further, the “IC50 (read off the curve)” value in [10] and in assay [11] was approximately 0.5 µg/mL each time.

The term Kd denotes the equilibrium constant for the complex coming apart. A lower Kd goes with higher affinity. By koff is commonly meant the rate constant with which the complex falls apart. One may read the kon as a measure of how fast the partners come together. Read a low kon as slower complex formation. As usually defined, the EC50 (read off the curve) is the midpoint of the concentration-response curve. A high value points to a need for much substance.

These data come from patent US20160046721A1 (BEIJING SHENOGEN PHARMA GROUP, published 2016).
